The source of these data is patent publication US20040137580A1.

The target in assay [1] is PSGL-1/mIgG2b made in 293T clone 14 (with porcine α1,3GalT) (human; mouse) (UniProt Q14242). The assay is described as follows: sandwich ELISA, fusion protein captured by goat anti-mouse IgG Fc, detected with peroxidase-conjugated lectin or anti-mouse IgG Fc. A general note: An ELISA detects its analyte on a solid surface through an enzyme-linked reagent.
The target of assay [2] is PSGL-1/mIgG2b made in CHO-K1 clone C2-1-9 (with porcine α1,3GalT and C2 GnT1) (human; mouse) (UniProt Q14242). The assay is described as above.
The target of assay [3] is PSGL-1/mIgG2b made in CHO-K1 clone 5L4-1 (with porcine α1,3GalT) (human; mouse) (UniProt Q14242). The description is as above.
Assay [4] deals with PSGL-1/mIgG2b made in COS7 m6 clone 5I (with porcine α1,3GalT) (human; mouse) (UniProt Q14242). Described as above.
Assay [5] has as its target PSGL1/mIgG2b fusion protein produced in COS-7 m6 cells without cotransfection of the α1,3 GT cDNA (human; mouse) (UniProt Q14242). In words: depletion of COS supernatant on beads, remaining fusion protein by anti-mouse IgG Fc sandwich ELISA.
Assay [6] addresses anti-pig reactive antibodies of human blood group AB serum. The assay is described as follows: cell-based or functional assay.

In the case of “peroxidase-conjugated Bandereia simplicifolia isolectin B4 (L-5391, Sigma)”, the fold increase in the relative O.D. (GSA-reactivity/anti-mouse IgG reactivity) against PSGL-1/mIgG2b made in 293T without the α1,3GalT in assay [1] was determined as 3.1 fold. In assay [2], this molecule came in with a fold increase of α-Gal epitope density (relative O.D. GSA-reactivity/anti-mouse IgG reactivity) against PSGL-1/mIgG2b made in CHO-K1 cells without the α1,3GalT of 13 fold and a fold increase of α-Gal epitope density (relative O.D. GSA-reactivity/anti-mouse IgG reactivity) against PSGL-1/mIgG2b made with the α1,3GalT alone of 7.4 fold. For the same molecule, in assay [3], the fold increase in the relative O.D. (GSA-reactivity/anti-mouse IgG reactivity) against PSGL-1/mIgG2b made in CHO without the α1,3GalT amounted to 1.8 fold. In addition, the fold increase in the relative O.D. (GSA-reactivity/anti-mouse IgG reactivity) against PSGL-1/mIgG2b made in COS without the α1,3GalT in assay [4] is 5.3 fold.
In assay [5], “goat anti-mouse IgG agarose beads (A-6531, Sigma) (antibody)” returned an amount of PSGL1/mIgG2b absorbed onto 50 µl packed beads from 2 ml of supernatant of 260 ng, an amount of PSGL1/mIgG2b absorbed onto 50 µl packed beads from 4 ml of supernatant of 290 ng and an amount of PSGL1/mIgG2b absorbed onto 50 µl packed beads from 8 ml of supernatant of 360 ng.

B1: PSGL-1/mIgG2b made in COS7 m6 clone 5I (with porcine α1,3GalT) (Fc fusion, human, UniProt Q14242 18-320, looked up, not shown: a dimerising Fc or GST)
chain: LQLWDTWADEAEKALGPLLARDRRQATEYEYLDYDFLPETEPPEMLRNSTDTTPLTGPGTPESTTVEPAARRSTGLDAGGAVTELTTELANMGNLSTDSAAMEIQTTQPAATEAQTTQPVPTEAQTTPLAATEAQTTRLTATEAQTTPLAATEAQTTPPAATEAQTTQPTGLEAQTTAPAAMEAQTTAPAAMEAQTTPPAAMEAQTTQTTAMEAQTTAPEATEAQTTQPTATEAQTTPLAAMEALSTEPSATEALSMEPTTKRGLFIPFSVSSVTHKGIPMAASNLSVNYPVGAPDHISVKQC
modifications: α-Gal substituted glycans (COS7 m6 cells co-expressing porcine α1,3GalT)
In assay [6], B1 had a PAEC cytotoxicity of blood group AB serum after adsorption of 12% and an amount of adsorber needed to reduce the PAEC cytotoxicity of human AB serum to 40% of maximum, against CHO cell-made PSGL-1/mIgG2b of 16 times less.

B2: PSGL-1/mIgG2b made in CHO-K1 clone 5L4-1 (with porcine α1,3GalT) (Fc fusion, human, UniProt Q14242 18-320, looked up, not shown: a dimerising Fc or GST)
chain: LQLWDTWADEAEKALGPLLARDRRQATEYEYLDYDFLPETEPPEMLRNSTDTTPLTGPGTPESTTVEPAARRSTGLDAGGAVTELTTELANMGNLSTDSAAMEIQTTQPAATEAQTTQPVPTEAQTTPLAATEAQTTRLTATEAQTTPLAATEAQTTPPAATEAQTTQPTGLEAQTTAPAAMEAQTTAPAAMEAQTTPPAAMEAQTTQTTAMEAQTTAPEATEAQTTQPTATEAQTTPLAAMEALSTEPSATEALSMEPTTKRGLFIPFSVSSVTHKGIPMAASNLSVNYPVGAPDHISVKQC
modifications: glycans of CHO-K1 cells co-expressing porcine α1,3GalT
In assay [6], B2 displayed an amount of adsorber needed to reduce the PAEC cytotoxicity of human AB serum to 40% of maximum of 9.1 µg and a lowest PAEC cytotoxicity of blood group AB serum reached after adsorption of more than 36%.

B3: PSGL-1/mIgG2b made in 293T clone 14 (with porcine α1,3GalT) (Fc fusion, human, UniProt Q14242 18-320, looked up, not shown: a dimerising Fc or GST)
chain: LQLWDTWADEAEKALGPLLARDRRQATEYEYLDYDFLPETEPPEMLRNSTDTTPLTGPGTPESTTVEPAARRSTGLDAGGAVTELTTELANMGNLSTDSAAMEIQTTQPAATEAQTTQPVPTEAQTTPLAATEAQTTRLTATEAQTTPLAATEAQTTPPAATEAQTTQPTGLEAQTTAPAAMEAQTTAPAAMEAQTTPPAAMEAQTTQTTAMEAQTTAPEATEAQTTQPTATEAQTTPLAAMEALSTEPSATEALSMEPTTKRGLFIPFSVSSVTHKGIPMAASNLSVNYPVGAPDHISVKQC
modifications: α-Gal substituted glycans (293T cells co-expressing porcine α1,3GalT)
In assay [6], B3 registered a PAEC cytotoxicity of blood group AB serum after adsorption of 25% and an amount of adsorber needed to reduce the PAEC cytotoxicity of human AB serum to 40% of maximum, against CHO cell-made PSGL-1/mIgG2b of 4 times less.

B4: PSGL-1/mIgG2b made in CHO-K1 clone C2-1-9 (with porcine α1,3GalT and C2 GnT1) (Fc fusion, human, UniProt Q14242 18-320, looked up, not shown: a dimerising Fc or GST)
chain: LQLWDTWADEAEKALGPLLARDRRQATEYEYLDYDFLPETEPPEMLRNSTDTTPLTGPGTPESTTVEPAARRSTGLDAGGAVTELTTELANMGNLSTDSAAMEIQTTQPAATEAQTTQPVPTEAQTTPLAATEAQTTRLTATEAQTTPLAATEAQTTPPAATEAQTTQPTGLEAQTTAPAAMEAQTTAPAAMEAQTTPPAAMEAQTTQTTAMEAQTTAPEATEAQTTQPTATEAQTTPLAAMEALSTEPSATEALSMEPTTKRGLFIPFSVSSVTHKGIPMAASNLSVNYPVGAPDHISVKQC
modifications: core 2 branched O-glycans with terminal Galα1,3Gal (Hex-HexNol-HexN-Hex-Hex; NeuAc-Hex-HexNol-HexN-Hex-Hex; NeuGc-Hex-HexNol-HexN-Hex-Hex)
Molecule B4 had an amount of adsorber needed to reduce the PAEC cytotoxicity of human AB serum to 40% of maximum, against PSGL-1/mIgG2b made in CHO clone 5L4-1 in assay [6] of 10 times less.
